Test results reported in publication PMC9482650, “Quantitative fragmentomics allow affinity mapping of interactomes” (Nature Communications, 2022).

T1: MPP7, Q5T2T1
T1 sequence (Q5T2T1 134-230, limits assumed, looked up): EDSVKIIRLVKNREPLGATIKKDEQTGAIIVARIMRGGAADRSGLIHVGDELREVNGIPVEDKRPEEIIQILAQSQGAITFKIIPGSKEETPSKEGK

T2: RHPN1, Q8TCX5
T2 sequence (Q8TCX5 508-602, limits assumed, looked up): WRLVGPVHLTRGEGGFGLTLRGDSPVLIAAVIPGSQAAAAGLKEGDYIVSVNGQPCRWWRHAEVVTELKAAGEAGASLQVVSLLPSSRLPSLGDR

T3: MPDZ_10, O75970
T3 sequence (O75970 1624-1722, limits assumed, looked up): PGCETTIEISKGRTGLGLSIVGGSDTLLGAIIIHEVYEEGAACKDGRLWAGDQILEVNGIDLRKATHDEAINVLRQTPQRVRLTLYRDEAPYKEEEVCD

T4: DFNB31_2, Q9P202
T4 sequence (Q9P202 274-371, limits assumed, looked up): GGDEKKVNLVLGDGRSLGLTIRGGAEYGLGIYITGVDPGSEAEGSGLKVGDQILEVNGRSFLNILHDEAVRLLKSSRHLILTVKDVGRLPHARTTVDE

T5: SNTB1, Q13884
T5 sequence (Q13884 107-205, limits assumed, looked up): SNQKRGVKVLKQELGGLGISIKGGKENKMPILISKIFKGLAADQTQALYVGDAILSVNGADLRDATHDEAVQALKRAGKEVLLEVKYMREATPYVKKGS

T6: PDZRN3_1, Q9UPQ7
T6 sequence (Q9UPQ7 244-349, limits assumed, looked up): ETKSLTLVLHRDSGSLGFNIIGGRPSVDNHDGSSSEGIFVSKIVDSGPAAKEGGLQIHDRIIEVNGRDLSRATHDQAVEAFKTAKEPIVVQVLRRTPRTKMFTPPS

T7: HTRA3, P83110
T7 sequence (P83110 354-453, limits assumed, looked up): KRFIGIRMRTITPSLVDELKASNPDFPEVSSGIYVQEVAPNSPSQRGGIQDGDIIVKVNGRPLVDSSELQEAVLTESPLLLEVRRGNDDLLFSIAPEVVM

T8: FRMPD1, Q5SYB0
T8 sequence (Q5SYB0 52-145, limits assumed, looked up): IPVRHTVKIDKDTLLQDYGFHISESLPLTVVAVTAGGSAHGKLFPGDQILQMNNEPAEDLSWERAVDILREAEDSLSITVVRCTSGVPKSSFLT

T9: ARHGAP21, Q5T5U3
T9 sequence (Q5T5U3 45-169, limits assumed, looked up): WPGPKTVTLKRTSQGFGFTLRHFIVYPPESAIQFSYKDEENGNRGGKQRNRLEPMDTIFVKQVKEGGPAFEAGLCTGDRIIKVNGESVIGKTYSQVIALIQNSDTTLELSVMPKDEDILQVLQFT

T10: MPDZ_5, O75970
T10 sequence (O75970 695-796, limits assumed, looked up): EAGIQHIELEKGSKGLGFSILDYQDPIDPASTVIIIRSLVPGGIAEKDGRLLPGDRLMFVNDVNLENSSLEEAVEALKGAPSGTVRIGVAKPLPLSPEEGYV

T11: LRRC7, Q96NW7
T11 sequence (Q96NW7 1440-1537, limits assumed, looked up): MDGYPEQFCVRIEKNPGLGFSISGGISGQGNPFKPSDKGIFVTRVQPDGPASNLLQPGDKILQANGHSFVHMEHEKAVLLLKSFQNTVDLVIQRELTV


target: Inadl_1, Q8NI35; assay: holdup assay; parameters: key: below the threshold = too weak to quantify, mostly under pKd 3.1 to 4; conditions: plain residues with an end cap or a label only (N-terminal biotin on a linker: ado-ado)
Sequence (Q8NI35 113-229): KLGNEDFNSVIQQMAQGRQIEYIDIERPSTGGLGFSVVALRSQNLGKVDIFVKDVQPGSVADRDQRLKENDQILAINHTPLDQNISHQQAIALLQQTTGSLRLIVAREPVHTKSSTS

Binder | pKd
EPAKETTTNV [SLC2A3, P11169] | below the threshold
PGKKPEDSRV [SLCO2B1, O94956] | below the threshold

target: GORASP2, Q9H8Y8; assay: holdup assay; parameters: key: below the threshold = too weak to quantify, mostly under pKd 3.1 to 4; conditions: plain residues with an end cap or a label only (N-terminal biotin on a linker: ado-ado)

Binder | pKd
EPAKETTTNV [SLC2A3, P11169] | 3.49
PGKKPEDSRV [SLCO2B1, O94956] | below the threshold

target: DLG2_3, Q15700; assay: holdup assay; parameters: key: below the threshold = too weak to quantify, mostly under pKd 3.1 to 4; conditions: plain residues with an end cap or a label only (N-terminal biotin on a linker: ado-ado)

Binder | pKd
EPAKETTTNV [SLC2A3, P11169] | below the threshold
PGKKPEDSRV [SLCO2B1, O94956] | below the threshold

target: T1, MPP7, Q5T2T1; assay: holdup assay; parameters: key: below the threshold = too weak to quantify, mostly under pKd 3.1 to 4; conditions: plain residues with an end cap or a label only (N-terminal biotin on a linker: ado-ado)

Binder | pKd
EPAKETTTNV [SLC2A3, P11169] | below the threshold
PGKKPEDSRV [SLCO2B1, O94956] | below the threshold

target: T2, RHPN1, Q8TCX5; assay: holdup assay; parameters: key: below the threshold = too weak to quantify, mostly under pKd 3.1 to 4; conditions: plain residues with an end cap or a label only (N-terminal biotin on a linker: ado-ado)

Binder | pKd
EPAKETTTNV [SLC2A3, P11169] | 4.35
PGKKPEDSRV [SLCO2B1, O94956] | 3.85

target: T3, MPDZ_10, O75970; assay: holdup assay; parameters: key: below the threshold = too weak to quantify, mostly under pKd 3.1 to 4; conditions: plain residues with an end cap or a label only (N-terminal biotin on a linker: ado-ado)

Binder | pKd
EPAKETTTNV [SLC2A3, P11169] | below the threshold
PGKKPEDSRV [SLCO2B1, O94956] | below the threshold

target: NHERF4_1, Q86UT5-2; assay: holdup assay; parameters: key: below the threshold = too weak to quantify, mostly under pKd 3.1 to 4; conditions: plain residues with an end cap or a label only (N-terminal biotin on a linker: ado-ado)
Sequence (Q86UT5 other isoform, or with tags, fused parts or gaps): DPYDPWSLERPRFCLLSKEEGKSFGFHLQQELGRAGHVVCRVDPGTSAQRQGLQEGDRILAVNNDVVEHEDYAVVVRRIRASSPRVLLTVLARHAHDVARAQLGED

Binder | pKd
EPAKETTTNV [SLC2A3, P11169] | below the threshold
PGKKPEDSRV [SLCO2B1, O94956] | below the threshold

target: SCRIB_3, Q14160; assay: holdup assay; parameters: key: below the threshold = too weak to quantify, mostly under pKd 3.1 to 4; conditions: plain residues with an end cap or a label only (N-terminal biotin on a linker: ado-ado)
Sequence (Q14160 999-1103): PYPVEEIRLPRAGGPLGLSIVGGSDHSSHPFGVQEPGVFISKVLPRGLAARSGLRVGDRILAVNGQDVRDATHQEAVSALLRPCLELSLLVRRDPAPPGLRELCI

Binder | pKd
EPAKETTTNV [SLC2A3, P11169] | 3.82
PGKKPEDSRV [SLCO2B1, O94956] | below the threshold

target: NHERF4_4, Q86UT5; assay: holdup assay; parameters: key: below the threshold = too weak to quantify, mostly under pKd 3.1 to 4; conditions: plain residues with an end cap or a label only (N-terminal biotin on a linker: ado-ado)
Sequence (Q86UT5 464-550): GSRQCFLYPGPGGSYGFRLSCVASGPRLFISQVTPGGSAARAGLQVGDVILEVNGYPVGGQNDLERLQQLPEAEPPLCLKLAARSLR

Binder | pKd
EPAKETTTNV [SLC2A3, P11169] | below the threshold
PGKKPEDSRV [SLCO2B1, O94956] | below the threshold

target: T4, DFNB31_2, Q9P202; assay: holdup assay; parameters: key: below the threshold = too weak to quantify, mostly under pKd 3.1 to 4; conditions: plain residues with an end cap or a label only (N-terminal biotin on a linker: ado-ado)

Binder | pKd
EPAKETTTNV [SLC2A3, P11169] | below the threshold
PGKKPEDSRV [SLCO2B1, O94956] | below the threshold

target: GRIP2_6, Q9C0E4; assay: holdup assay; parameters: key: below the threshold = too weak to quantify, mostly under pKd 3.1 to 4; conditions: plain residues with an end cap or a label only (N-terminal biotin on a linker: ado-ado)
Sequence (Q9C0E4 648-740): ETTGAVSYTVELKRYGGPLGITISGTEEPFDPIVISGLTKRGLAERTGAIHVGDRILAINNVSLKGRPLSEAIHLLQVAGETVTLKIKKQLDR

Binder | pKd
EPAKETTTNV [SLC2A3, P11169] | below the threshold
PGKKPEDSRV [SLCO2B1, O94956] | below the threshold

target: PDLIM1, O00151; assay: holdup assay; parameters: key: below the threshold = too weak to quantify, mostly under pKd 3.1 to 4; conditions: plain residues with an end cap or a label only (N-terminal biotin on a linker: ado-ado)
Sequence (O00151 1-87): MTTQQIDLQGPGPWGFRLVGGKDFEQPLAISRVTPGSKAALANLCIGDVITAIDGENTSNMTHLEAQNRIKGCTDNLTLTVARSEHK

Binder | pKd
EPAKETTTNV [SLC2A3, P11169] | below the threshold
PGKKPEDSRV [SLCO2B1, O94956] | below the threshold

target: T5, SNTB1, Q13884; assay: holdup assay; parameters: key: below the threshold = too weak to quantify, mostly under pKd 3.1 to 4; conditions: plain residues with an end cap or a label only (N-terminal biotin on a linker: ado-ado)

Binder | pKd
EPAKETTTNV [SLC2A3, P11169] | 4.57
PGKKPEDSRV [SLCO2B1, O94956] | 3.94

target: SCRIB_1, Q14160; assay: holdup assay; parameters: key: below the threshold = too weak to quantify, mostly under pKd 3.1 to 4; conditions: plain residues with an end cap or a label only (N-terminal biotin on a linker: ado-ado)
Sequence (Q14160 718-814): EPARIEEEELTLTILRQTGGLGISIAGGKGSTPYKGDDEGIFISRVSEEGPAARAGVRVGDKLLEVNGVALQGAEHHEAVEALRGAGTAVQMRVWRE

Binder | pKd
EPAKETTTNV [SLC2A3, P11169] | below the threshold
PGKKPEDSRV [SLCO2B1, O94956] | below the threshold

target: FRMPD2_2, Q68DX3; assay: holdup assay; parameters: key: below the threshold = too weak to quantify, mostly under pKd 3.1 to 4; conditions: plain residues with an end cap or a label only (N-terminal biotin on a linker: ado-ado)
Sequence (Q68DX3 944-1038): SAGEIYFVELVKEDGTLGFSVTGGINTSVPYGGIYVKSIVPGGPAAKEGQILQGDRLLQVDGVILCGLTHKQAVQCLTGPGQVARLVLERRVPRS

Binder | pKd
EPAKETTTNV [SLC2A3, P11169] | 4.11
PGKKPEDSRV [SLCO2B1, O94956] | below the threshold

target: Inadl_4, Q8NI35; assay: holdup assay; parameters: key: below the threshold = too weak to quantify, mostly under pKd 3.1 to 4; conditions: plain residues with an end cap or a label only (N-terminal biotin on a linker: ado-ado)
Sequence (Q8NI35 547-651): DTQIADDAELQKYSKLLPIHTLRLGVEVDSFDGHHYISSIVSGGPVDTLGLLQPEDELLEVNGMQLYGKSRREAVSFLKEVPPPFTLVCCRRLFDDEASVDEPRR

Binder | pKd
EPAKETTTNV [SLC2A3, P11169] | below the threshold
PGKKPEDSRV [SLCO2B1, O94956] | below the threshold

target: TJP1_2, Q07157; assay: holdup assay; parameters: key: below the threshold = too weak to quantify, mostly under pKd 3.1 to 4; conditions: plain residues with an end cap or a label only (N-terminal biotin on a linker: ado-ado)
Sequence (Q07157 181-274): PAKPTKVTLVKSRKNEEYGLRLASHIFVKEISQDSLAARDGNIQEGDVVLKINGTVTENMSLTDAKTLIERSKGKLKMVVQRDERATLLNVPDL

Binder | pKd
EPAKETTTNV [SLC2A3, P11169] | below the threshold
PGKKPEDSRV [SLCO2B1, O94956] | below the threshold

target: Inadl_3, Q8NI35; assay: holdup assay; parameters: key: below the threshold = too weak to quantify, mostly under pKd 3.1 to 4; conditions: plain residues with an end cap or a label only (N-terminal biotin on a linker: ado-ado)
Sequence (Q8NI35 359-469): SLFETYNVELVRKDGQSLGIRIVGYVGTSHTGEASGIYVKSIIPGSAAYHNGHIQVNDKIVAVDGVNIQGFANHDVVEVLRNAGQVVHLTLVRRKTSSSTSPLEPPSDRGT

Binder | pKd
EPAKETTTNV [SLC2A3, P11169] | below the threshold
PGKKPEDSRV [SLCO2B1, O94956] | below the threshold

target: T6, PDZRN3_1, Q9UPQ7; assay: holdup assay; parameters: key: below the threshold = too weak to quantify, mostly under pKd 3.1 to 4; conditions: plain residues with an end cap or a label only (N-terminal biotin on a linker: ado-ado)

Binder | pKd
EPAKETTTNV [SLC2A3, P11169] | below the threshold
PGKKPEDSRV [SLCO2B1, O94956] | below the threshold

target: T7, HTRA3, P83110; assay: holdup assay; parameters: key: below the threshold = too weak to quantify, mostly under pKd 3.1 to 4; conditions: plain residues with an end cap or a label only (N-terminal biotin on a linker: ado-ado)

Binder | pKd
EPAKETTTNV [SLC2A3, P11169] | below the threshold
PGKKPEDSRV [SLCO2B1, O94956] | below the threshold

target: T8, FRMPD1, Q5SYB0; assay: holdup assay; parameters: key: below the threshold = too weak to quantify, mostly under pKd 3.1 to 4; conditions: plain residues with an end cap or a label only (N-terminal biotin on a linker: ado-ado)

Binder | pKd
EPAKETTTNV [SLC2A3, P11169] | below the threshold
PGKKPEDSRV [SLCO2B1, O94956] | below the threshold

target: IL16_1, Q14005; assay: holdup assay; parameters: key: below the threshold = too weak to quantify, mostly under pKd 3.1 to 4; conditions: plain residues with an end cap or a label only (N-terminal biotin on a linker: ado-ado)
Sequence (Q14005 210-306): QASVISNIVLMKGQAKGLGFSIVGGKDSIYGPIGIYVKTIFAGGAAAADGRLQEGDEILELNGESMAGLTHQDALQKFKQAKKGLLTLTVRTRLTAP

Binder | pKd
EPAKETTTNV [SLC2A3, P11169] | below the threshold
PGKKPEDSRV [SLCO2B1, O94956] | 3.84

target: GORASP1, Q9BQQ3; assay: holdup assay; parameters: key: below the threshold = too weak to quantify, mostly under pKd 3.1 to 4; conditions: plain residues with an end cap or a label only (N-terminal biotin on a linker: ado-ado)
Sequence (Q9BQQ3 1-208): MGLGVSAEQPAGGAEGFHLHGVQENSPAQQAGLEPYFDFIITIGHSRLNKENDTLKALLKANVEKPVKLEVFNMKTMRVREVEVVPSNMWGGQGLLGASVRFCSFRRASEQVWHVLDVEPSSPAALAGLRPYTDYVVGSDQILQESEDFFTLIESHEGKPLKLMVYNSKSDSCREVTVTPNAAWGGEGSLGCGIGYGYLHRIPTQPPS

Binder | pKd
EPAKETTTNV [SLC2A3, P11169] | below the threshold
PGKKPEDSRV [SLCO2B1, O94956] | below the threshold

target: T9, ARHGAP21, Q5T5U3; assay: holdup assay; parameters: key: below the threshold = too weak to quantify, mostly under pKd 3.1 to 4; conditions: plain residues with an end cap or a label only (N-terminal biotin on a linker: ado-ado)

Binder | pKd
EPAKETTTNV [SLC2A3, P11169] | 4.06
PGKKPEDSRV [SLCO2B1, O94956] | 3.84

target: T10, MPDZ_5, O75970; assay: holdup assay; parameters: key: below the threshold = too weak to quantify, mostly under pKd 3.1 to 4; conditions: plain residues with an end cap or a label only (N-terminal biotin on a linker: ado-ado)

Binder | pKd
EPAKETTTNV [SLC2A3, P11169] | below the threshold
PGKKPEDSRV [SLCO2B1, O94956] | below the threshold

target: DLG4_1, P78352; assay: holdup assay; parameters: key: below the threshold = too weak to quantify, mostly under pKd 3.1 to 4; conditions: plain residues with an end cap or a label only (N-terminal biotin on a linker: ado-ado)
Sequence (P78352 62-152): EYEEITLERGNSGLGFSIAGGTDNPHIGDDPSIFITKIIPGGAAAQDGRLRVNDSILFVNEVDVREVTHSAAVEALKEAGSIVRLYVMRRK

Binder | pKd
EPAKETTTNV [SLC2A3, P11169] | 4.12
PGKKPEDSRV [SLCO2B1, O94956] | 3.83

target: T11, LRRC7, Q96NW7; assay: holdup assay; parameters: key: below the threshold = too weak to quantify, mostly under pKd 3.1 to 4; conditions: plain residues with an end cap or a label only (N-terminal biotin on a linker: ado-ado)

Binder | pKd
EPAKETTTNV [SLC2A3, P11169] | below the threshold
PGKKPEDSRV [SLCO2B1, O94956] | below the threshold
